# Where two headings read alike, the source gives them in different places.
# T1: BCMA-his protein (Cat #: BCA-H522y, ACRO) (human, UniProt Q02223 1-54)
# T1 construct: Bought recombinant protein; the construct is most likely only a soluble part of it; also called BCMA protein; human BCMA
# T1 sequence: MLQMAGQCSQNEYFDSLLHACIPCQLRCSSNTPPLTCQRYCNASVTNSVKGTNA
# T2: mouse BCMA on HEK293A/mouse BCMA cells (mouse, UniProt O88472 1-185)
# T2 sequence: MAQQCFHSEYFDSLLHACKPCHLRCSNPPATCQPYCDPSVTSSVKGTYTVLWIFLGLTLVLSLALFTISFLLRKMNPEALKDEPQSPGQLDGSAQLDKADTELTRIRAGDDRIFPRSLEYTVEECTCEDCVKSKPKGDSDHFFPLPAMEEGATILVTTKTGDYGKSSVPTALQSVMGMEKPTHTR
# T3: human BCMA on HEK293A/human BCMA cells (human, UniProt Q02223 1-184)
# T3 sequence: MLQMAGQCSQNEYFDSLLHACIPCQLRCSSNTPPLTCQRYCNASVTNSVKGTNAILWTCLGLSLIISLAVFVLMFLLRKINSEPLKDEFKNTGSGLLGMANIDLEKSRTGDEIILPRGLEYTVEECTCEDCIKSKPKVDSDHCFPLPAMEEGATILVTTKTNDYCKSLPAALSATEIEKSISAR
# T4: human TACI on HEK293A/human TACI cells (human, UniProt O14836 1-293)
# T4 sequence: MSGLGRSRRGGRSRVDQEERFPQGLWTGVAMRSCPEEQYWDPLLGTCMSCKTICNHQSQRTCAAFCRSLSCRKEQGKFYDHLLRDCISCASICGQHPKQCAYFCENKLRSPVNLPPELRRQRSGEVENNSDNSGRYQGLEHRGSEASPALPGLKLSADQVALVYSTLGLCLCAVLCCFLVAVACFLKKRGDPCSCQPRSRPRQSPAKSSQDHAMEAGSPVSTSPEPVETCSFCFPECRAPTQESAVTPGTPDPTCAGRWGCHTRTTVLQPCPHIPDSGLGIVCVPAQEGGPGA
# T5: human BAFFR on HEK293A/human BAFFR cells (human, UniProt Q96RJ3 1-184)
# T5 sequence: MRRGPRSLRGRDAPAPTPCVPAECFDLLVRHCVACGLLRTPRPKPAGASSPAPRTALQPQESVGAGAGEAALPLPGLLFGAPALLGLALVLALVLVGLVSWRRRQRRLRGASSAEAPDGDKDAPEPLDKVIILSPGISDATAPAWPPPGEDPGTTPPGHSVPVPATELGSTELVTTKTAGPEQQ
# Columns and labels:
# [1] = target: T1, BCMA-his protein (Cat #: BCA-H522y, …); assay: ELISA, coated BCMA protein
# Procedure: (§1) Briefly, an ELISA plate was coated with 100 μl 1 μg/ml BCMA protein (Cat #: BCA-H522y, ACRO) in PBS overnight at 4° C. Then, the plate was blocked with 250 μl PBST with 4% skimmed milk at room temperature for 1 h. […] The negative control well was added with PBST instead of the antibody. The plate was washed with PBST for three times, added with 100 μl HRP conjugated goat anti-human IgG (1:7000, Cat #: 31413, thermofisher), and incubated at room temperature for 1 h. The plate was washed again with PBST for four times, added with 100 μl freshly prepared TMB (Cat #: 555214, BD, USA), and left still for color development, which was terminated with 50 μl 10% H₂SO₄. The absorbance was read at 450 nm, and the data was processed and analyzed using GraphPad.
# (§2) The purified bispecific antibodies were tested for their binding capability to recombinant human CD3 and human BCMA proteins by ELISA, following the protocols in Example 4 and Example 9.
# [2] = target: T6, CD3D&E protein (Cat #: CT038-H2508H, Sino Biological) (human, UniProt P04234 22-105; P07766 23-126); assay: SPR (BIAcore 8K), protocol of Example 10
# T6 construct: Bought complex of the delta and epsilon chains; also called CD3D&E complex; human CD3D&E complex
# Procedure: Following the protocols in Example 5 and Example 10, the bispecific antibodies of the disclosure were tested for their binding affinity to CD3D&E and human BCMA.
# CD3 on Jurkat cells = target: T7, CD3 on Jurkat cells (UniProt P04234 22-171; P07766 23-207); assay: flow cytometry on Jurkat cells
# T7 construct: whole, on cells
# Procedure: Jurkat cells were collected, centrifuged at 300 g for 5 min, and suspended in PBS. After another centrifugation, the cells were suspended in 2% FBS-PBS at the cell density of 3×10⁶/ml, and […] were plated onto a U-bottom plate. The plate was added with 50 μl serially diluted anti-CD3 antibodies of the disclosure in 2% FBS-PBS (4-fold dilution, starting at 20 μg/ml), and incubated at room temperature for 1 h. The plate was washed with 2% FBS-PBS for three times, added with 50 μl PE-labeled goat-anti-human IgG (H+L) (1: 500), and incubated at room temperature for 45 min. The plate was washed with 2% FBS-PBS again for three times, and added with 150 μl 2% FBS-PBS to suspend the cells. The plate was measured for cell fluorescence using a cytometry, and the data was processed with FlowJo and analyzed with GraphPad.
# Following the protocol of Example 11, the bispecific antibodies of the disclosure were tested for their binding capability to Jurkat cells.
# [3] = target: T8, monkey BCMA on HEK293A/monkey BCMA cells (monkey, UniProt Q02223 1-184 (human entry)); assay: flow cytometry on HEK293A/monkey BCMA cells
# Procedure: (§3) The anti-BCMA antibody's binding capability to cell surface BCMAs was tested by FACS. Briefly, HEK293A/human BCMA cells, HEK293A/monkey BCMA cells and HEK293A/mouse BCMA cells, as generated in Example 1, were collected, digested with trypsin, and subjected to centrifugation at 300 g for 5 min. The cells were suspended in PBS, and subjected to centrifugation again. The cells were re-suspended in PBS with 2% FBS at the cell density at 4×10⁶/ml, and 50 μl cells were seeded onto a U-bottom plate. […] The plate was washed with 2% FBS-PBS for three times, added with 50 μl PE-labeled goat-anti-human IgG (H+L) (1: 500), and incubated at room temperature for 45 min. The plate was washed with 2% FBS-PBS again for three times, and added with 150 μl 2% FBS-PBS to suspend the cells. The plate was measured for cell fluorescence using a cytometry, and the data was processed with FlowJo and analyzed with GraphPad.
# (§4) Following the protocol of Example 6, the bispecific antibodies of the disclosure were tested for their binding capability to the HEK293A/human BCMA cells, HEK293A/monkey BCMA cells, and HEK293A/mouse BCMA cells as generated in Example 1.
# [4] = target: T2, mouse BCMA on HEK293A/mouse BCMA cells; assay: flow cytometry on HEK293A/mouse BCMA cells [continued) F]
# Procedure: as §3, §4
# [5] = target: T6, CD3D&E protein (Cat #: CT038-H2508H, …); assay: ELISA, coated CD3D&E
# Procedure: as §2
# [6] = target: T3, human BCMA on HEK293A/human BCMA cells; assay: flow cytometry on HEK293A/human BCMA cells
# Procedure: as §3, §4
# [7] = target: T8, monkey BCMA on HEK293A/monkey BCMA cells; assay: flow cytometry on HEK293A/monkey BCMA cells; remark: listed apart in the source
# Procedure: as §3
# [8] = target: T3, human BCMA on HEK293A/human BCMA cells; assay: flow cytometry on HEK293A/human BCMA cells; remark: listed apart in the source
# Procedure: as §3
# [9] = target: T3, human BCMA on HEK293A/human BCMA cells; assay: flow cytometry on HEK293A/human BCMA cells in the presence of 1 µg/ml soluble human BCMA-his protein
# Procedure: (§5) Briefly, 10⁵ HEK293A/human BCMA cells in 100 μl culture medium were seeded on a 96-well plate, and the plate was further added with 50 μl serially diluted antibody or PBS followed by the human BCMA-his proteins (Cat #: 10620-H08H, Sino Biological) at the final concentration of 1 μg/ml. After 1-h incubation at 4° C., the plate was washed with PBS for three times, added with APC-goat-anti-mouse IgG (1:500 dilution, Cat #: 405308, BioLegend, US), inducted at 4° C. for 1 h, washed with PBS for three times, and measured for cell fluorescence using a FACS analyzer (BD).
# [10] = target: T4, human TACI on HEK293A/human TACI cells; assay: flow cytometry on HEK293A/human TACI cells
# [11] = target: T3, human BCMA on HEK293A/human BCMA cells; assay: flow cytometry on HEK293A/human BCMA cells, without soluble BCMA
# Procedure: as §5, with “was further added with 50 μl serially diluted antibody or PBS followed by the human BCMA-his proteins (Cat #: 10620-H08H, Sino Biological) at the final concentration of 1 μg/ml.” left out
# [12] = target: T2, mouse BCMA on HEK293A/mouse BCMA cells; assay: flow cytometry on HEK293A/mouse BCMA cells
# Procedure: as §3
# [13] = target: T1, BCMA-his protein (Cat #: BCA-H522y, …); assay: SPR (BIAcore 8K), antibody captured by anti-human Fc, BCMA protein as analyte
# Procedure: Briefly, the mouse anti-human Fc antibody (Cat #: BR100839, cytiva) was coupled to CMS biosensor chip. […] Chip regeneration was performed with 3 M MgCl₂.
# [14] = target: T5, human BAFFR on HEK293A/human BAFFR cells; assay: flow cytometry on HEK293A/human BAFFR cells
# [15] = target: T1, BCMA-his protein (Cat #: BCA-H522y, …); assay: ELISA, coated BCMA protein; remark: listed apart in the source
# Procedure: as §1
# T8 sequence (Q02223 other isoform, or with tags, fused parts or gaps): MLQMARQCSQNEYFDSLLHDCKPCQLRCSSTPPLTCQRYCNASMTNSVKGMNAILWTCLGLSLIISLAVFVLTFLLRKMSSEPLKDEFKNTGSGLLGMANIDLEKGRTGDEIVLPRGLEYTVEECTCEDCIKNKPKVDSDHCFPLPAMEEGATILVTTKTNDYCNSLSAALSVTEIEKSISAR
# T6 sequence (P04234 22-105, form in doubt, chain 1 of 2): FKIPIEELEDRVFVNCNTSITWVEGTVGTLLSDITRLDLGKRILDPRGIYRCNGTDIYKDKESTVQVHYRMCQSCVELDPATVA
# T6 sequence (P07766 23-126, form in doubt, chain 2 of 2): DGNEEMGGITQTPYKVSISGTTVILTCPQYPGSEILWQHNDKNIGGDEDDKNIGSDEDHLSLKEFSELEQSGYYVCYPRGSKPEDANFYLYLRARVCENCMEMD
# T7 sequence (P04234 22-171, chain 1 of 2): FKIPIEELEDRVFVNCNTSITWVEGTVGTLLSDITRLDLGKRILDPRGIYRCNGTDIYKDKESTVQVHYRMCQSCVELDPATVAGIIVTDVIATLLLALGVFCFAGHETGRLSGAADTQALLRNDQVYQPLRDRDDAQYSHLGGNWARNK
# T7 sequence (P07766 23-207, chain 2 of 2): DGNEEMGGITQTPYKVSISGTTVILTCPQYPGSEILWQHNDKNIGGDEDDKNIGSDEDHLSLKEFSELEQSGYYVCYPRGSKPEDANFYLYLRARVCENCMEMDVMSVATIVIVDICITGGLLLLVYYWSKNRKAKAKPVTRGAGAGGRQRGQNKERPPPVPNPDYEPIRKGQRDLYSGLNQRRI
Binder,EC50 [1] [µg/mL],Kd [2] [nM],EC50 (CD3 on Jurkat cells) [µg/mL],EC50 [3] [µg/mL],binding result [4],EC50 [5] [µg/mL],EC50 [6] [µg/mL],EC50 [7] [µg/mL],EC50 [8] [µg/mL],EC50 (read off the curve) [9] [µg/mL],binding result [10],EC50 (read off the curve) [11] [µg/mL],binding result [12],Kd [13] [nM],binding result [14],EC50 [15] [µg/mL]
"anti-CD3/BCMA bispecific antibody MBS305-L-KIH (bispecific antibody, human IgG1, kappa, L234A L235A, N297A) heavy 1: QVQLVQSGAEVKKPGASVKVSCKASGYTFTNHIIHWVRQAPGQGLEWMGYINPYPGYHGYNDKFSGRATMTSDTSTSTVYMELSSLRSEDTAVYYCARDGYYRDQDVLDYWGQGTLVTVSSASTKGPSVFPLAPSSKSTSGGTAALGCLVKDYFPEPVTVSWNSGALTSGVHTFPAVLQSSGLYSLSSVVTVPSSSLGTQTYICNVNHKPSNTKVDKKVEPKSCDKTHTCPPCPAPEAAGGPSVFLFPPKPKDTLMISRTPEVTCVVVDVSHEDPEVKFNWYVDGVEVHNAKTKPREEQYASTYRVVSVLTVLHQDWLNGKEYKCKVSNKALPAPIEKTISKAKGQPREPQVYTLPPSREEMTKNQVSLSCAVKGFYPSDIAVEWESNGQPENNYKTTPPVLDSDGSFFLVSKLTVDKSRWQQGNVFSCSVMHEALHNHYTQKSLSLSPGK light 1: not shown heavy 2: QVQLVQSGAEVKKPGASVKVSCKASGYTFTNHIIHWVRQAPGQGLEWMGYINPYPGYHGYNDKFSGRATMTSDTSTSTVYMELSSLRSEDTAVYYCARDGYYRDQDVLDYWGQGTLVTVSSGGGGSGGGGSGGGGSGGGGSDIQMTQSPSSLSASVGDRVTITCKASQDISQYLNWYQQKPGKAPKLLIYYTSGLHPGVPSRFSGSGSGTDFTFTISSLEPEDEATYYCQQGYALPWTFGQGTKLTAKRGGGGSGGGGSGGGGSEVQLVESGGGLVQPGRSLRLSCAASGFTFGDYAMHWVRQAPGKGLEWVSGISWNHGHIGYADSVKGRFTISRDNAKKSLYLQMNSLRAEDTALYYCAKDNSGYGHYYYGMDVWGQGTTVTVASASTKGPSVFPLAPSSKSTSGGTAALGCLVKDYFPEPVTVSWNSGALTSGVHTFPAVLQSSGLYSLSSVVTVPSSSLGTQTYICNVNHKPSNTKVDKKVEPKSCDKTHTCPPCPAPEAAGGPSVFLFPPKPKDTLMISRTPEVTCVVVDVSHEDPEVKFNWYVDGVEVHNAKTKPREEQYASTYRVVSVLTVLHQDWLNGKEYKCKVSNKALPAPIEKTISKAKGQPREPQVYTLPPSREEMTKNQVSLWCLVKGFYPSDIAVEWESNGQPENNYKTTPPVLDSDGSFFLYSKLTVDKSRWQQGNVFSCSVMHEALHNHYTQKSLSLSPGK light 2: not shown",0.0196,675,0.00301,0.289,no binding (tested: about 30000 ng/ml (LOG10 about 4.5)),0.267,0.187,,,,,,,,,
"anti-BCMA antibody A6-3, full-length human IgG1/kappa (antibody, V domains shown, Expressed in HEK293F cells, purified on Protein A) VH: QVQLVQSGAEVKKPGASVKVSCKASGYTFTNHIIHWVRQAPGQGLEWMGYINPYPGYHGYNDKFSGRATMTSDTSTSTVYMELSSLRSEDTAVYYCARDGYYRDQDVLDYWGQGTLVTVSS VL: DIQMTQSPSSLSASVGDRVTITCKASQDISQYLNWYQQKPGKAPKLLIYYTSGLHPGVPSRFSGSGSGTDFTFTISSLEPEDIATYYCQQGYALPWTFGQGTKVEIKR",,,,,,,,0.0986,0.0415,~1,no binding (tested: 100 µg/ml and 10 µg/ml),~0.4,no binding,0.132,no binding (tested: 100 µg/ml and 10 µg/ml),0.00733

# Source: patent publication US20230348630A1 (BEIJING MABWORKS BIOTECH, published 2023)
